The target in assay [1] is T1, dog MT1-MMP hemopexin domain (dog).
T1 construct: domain: hemopexin domain
The experiment in a line: FP competition, dog hemopexin domain. As for the experimental part: (§1) Subsequently, the non-fluorescent competitor bicyclic peptide (usually just the bicycle core sequence) is titrated, such that it displaces the fluorescent tracer from the target protein. The displacement of the tracer is measured and associated with a drop in fluorescence polarisation. The drop in fluorescence polarisation is proportional to the fraction of target protein bound with the non-fluorescent titrant, and thus is a measure of the affinity of titrant to target protein.

The target of assay [2] is T2, human MT1-MMP hemopexin domain (hemopexin-like repeats, residues Cys319-Gly511), N-terminally His6-tagged … (human, UniProt P50281 319-511).
T2 construct: range 319-511; Secreted from HEK293 cells; also called hemopexin protein; MT1-MMP (=MMP-14); not shown: N-terminal His6 tag from pEXPR-IBA42 vector
Nature of the assay: FP competition vs MT1-MMP hemopexin domain (tracer not given). As for the experimental part:
as §1

Assay [3] has as its target T2, human MT1-MMP hemopexin domain …. Nature of the assay: Kd, method not named in table (FP competition by the methods).

Numbered stars: 1 amine (or outer) side, 2 acyl side, 3 side chain; on linkers, the order of the positions; unused ones are H or OH. Bridge positions count the residues as written; N and C are the ends. Square brackets hold non-standard residues; d marks the D form. Ends that are not written are not given here. * marks the point of attachment. DOTA = O=C(O)CN1CCN(CC(=O)O)CCN(CC(=O)*)CCN(CC(=O)O)CC1; Phe(4-Br) = N[C@@H](Cc1ccc(Br)cc1)C(=O)O; 1Nal = N[C@@H](Cc1cccc2ccccc12)C(=O)O; TBMB = c1c(C[*:1])cc(C[*:3])cc1C[*:2]; Tle = CC(C)(C)[C@H](N)C(=O)O; βAla = NCCC(=O)O; Sar = CNCC(=O)O

B1: 17-69-07-N241, bAla-Sar10-A-(17-69-07) D-Ala1 1Nal4 D-Ala5 tBuGly11 (peptide)
peptide: [βAla][Sar][Sar][Sar][Sar][Sar][Sar][Sar][Sar][Sar][Sar]AC[dA]NE[1Nal][dA]CEDFYD[Tle]C-NH2
modifications: linker 13-19-26 via TBMB; N-terminus assumed
SMILES: C[C@H](NC(=O)CN(C)C(=O)CN(C)C(=O)CN(C)C(=O)CN(C)C(=O)CN(C)C(=O)CN(C)C(=O)CN(C)C(=O)CN(C)C(=O)CN(C)C(=O)CN(C)C(=O)CCN)C(=O)N[C@H]1CSCc2cc3cc(c2)CSC[C@H](NC(=O)[C@@H](C)NC(=O)[C@H](Cc2cccc4ccccc24)NC(=O)[C@H](CCC(=O)O)NC(=O)[C@H](CC(N)=O)NC(=O)[C@@H](C)NC1=O)C(=O)N[C@@H](CCC(=O)O)C(=O)N[C@@H](CC(=O)O)C(=O)N[C@@H](Cc1ccccc1)C(=O)N[C@@H](Cc1ccc(O)cc1)C(=O)N[C@@H](CC(=O)O)C(=O)N[C@@H](C(C)(C)C)C(=O)N[C@H](C(N)=O)CSC3
notes: also called βAla-Sar10-A-C(D-Ala)NE(1Nal)(D-Ala)CEDFYD(tBuGly)C
For orientation: Kd means the free concentration of one partner at which half of the binding sites on the other are occupied at equilibrium, for simple one-to-one binding. Higher therefore signals a looser complex. Take B1: the affinity in assay [1], expressed as Kd, was 1.4 nM.

B2: 17-69-07-N252, Ac-(17-69-07) D-Ala1 1Nal4 D-Ala5 4BrPhe9 tBuGly11 (peptide)
chain: Ac-C[dA]NE[1Nal][dA]CEDF[Phe(4-Br)]D[Tle]C-NH2
modifications: linker 1-7-14 via TBMB
SMILES: CC(=O)N[C@H]1CSCc2cc3cc(c2)CSC[C@H](NC(=O)[C@@H](C)NC(=O)[C@H](Cc2cccc4ccccc24)NC(=O)[C@H](CCC(=O)O)NC(=O)[C@H](CC(N)=O)NC(=O)[C@@H](C)NC1=O)C(=O)N[C@@H](CCC(=O)O)C(=O)N[C@@H](CC(=O)O)C(=O)N[C@@H](Cc1ccccc1)C(=O)N[C@@H](Cc1ccc(Br)cc1)C(=O)N[C@@H](CC(=O)O)C(=O)N[C@@H](C(C)(C)C)C(=O)N[C@H](C(N)=O)CSC3
In assay [2], B2 had a Kd of 0.8 nM.

B3: 17-69-07-N219, G-Sar10-A-(17-69-07) (non-stabilised with spacer) (peptide)
peptide: G[Sar][Sar][Sar][Sar][Sar][Sar][Sar][Sar][Sar][Sar]ACYNEFGCEDFYDIC-NH2
modifications: linker 13-19-26 via TBMB
For the molecule B3, the affinity in assay [1], expressed as Kd, was 0.9 nM.

B4: 17-69-07-N100, Ac-(17-69-07) tBuGly11 (peptide)
chain: Ac-CYNEFGCEDFYD[Tle]C-NH2
modifications: linker 1-7-14 via TBMB
Consider B4, for which, in assay [2], the affinity, expressed as Kd, was 1.56 nM.

B5: 17-69-07-N248, DOTA-A-(17-69-07) D-Ala1 1Nal4 D-Ala5 4BrPhe9 tBuGly11 (peptide)
chain: {DOTA}-AC[dA]NE[1Nal][dA]CEDF[Phe(4-Br)]D[Tle]C-NH2
modifications: linker 2-8-15 via TBMB
SMILES: C[C@H](NC(=O)CN1CCN(CC(=O)O)CCN(CC(=O)O)CCN(CC(=O)O)CC1)C(=O)N[C@H]1CSCc2cc3cc(c2)CSC[C@H](NC(=O)[C@@H](C)NC(=O)[C@H](Cc2cccc4ccccc24)NC(=O)[C@H](CCC(=O)O)NC(=O)[C@H](CC(N)=O)NC(=O)[C@@H](C)NC1=O)C(=O)N[C@@H](CCC(=O)O)C(=O)N[C@@H](CC(=O)O)C(=O)N[C@@H](Cc1ccccc1)C(=O)N[C@@H](Cc1ccc(Br)cc1)C(=O)N[C@@H](CC(=O)O)C(=O)N[C@@H](C(C)(C)C)C(=O)N[C@H](C(N)=O)CSC3
With B5, binding in assay [3] was put at a Kd of 0.5 nM.

The record behind these values is patent US20200171161A1 (Bicycle, published 2020).
